From patent JPH11127861A (dated 1999)

Molecular target: HCV serine protease Cpro-2 (NS3 protein, p70) (C型肝炎ウイルス (株名 HCV-J))
Assay: cell-based or functional assay

Binder | IC50, HCVプロテアーゼ阻害活性 (組換え基質MBP-NS5A/5B-ADK) [µM]
NSNPYYGRTSYNLKFKG [CDR-H2 (17 amino acid peptide, CDR2 of the mAb 8D4 H chain)] | 229
TDYVLIW [CDR-H1-7 (7 amino acid peptide: the 5 residues of H chain CDR1 with one residue left at each end)] | 165
GYSFTDYVLIWVKQS [CDR-H1 (15 amino acid peptide containing CDR1 of the mAb 8D4 H chain)] | 20.8
